In publication PMC11063343 one finds maximum RU data, which are given here for one substance.

This test concerns the target cellugyrin Inner loop 1A peptide. Description: SPR. A general note: Surface plasmon resonance follows binding to a sensor surface in real time, without labels.

Turning to “full length SARS-CoV-2 spike protein (from UniProt P0DTC2) (natural protein)”, the maximum RU came out at 220 RU.
